# Test results from US20220119534A1 (DRAGONFLY THERAPEUTICS, published 2022).
# T1: Human CLEC12A-His (human, UniProt Q5QGZ9 65-265)
# T1 construct: Recombinant soluble protein made in house (Dragonfly Tx); The hCLEC12A spot of the HuProt array is written under this molecule as well; also called hCLEC12A-His; hCLEC12A; not shown: His tag
# T1 sequence: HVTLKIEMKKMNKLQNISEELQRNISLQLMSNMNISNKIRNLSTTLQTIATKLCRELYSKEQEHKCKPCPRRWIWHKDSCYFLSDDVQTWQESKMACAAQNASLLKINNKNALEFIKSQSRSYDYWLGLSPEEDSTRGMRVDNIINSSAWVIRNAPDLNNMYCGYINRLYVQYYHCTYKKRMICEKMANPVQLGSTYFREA
# T2: mFc-hNKG2D (human, UniProt P26718 73-216)
# T2 construct: extracellular domain; Made in house (Dragonfly Tx); the order of tag and ECD follows the name mFc-hNKG2D; also called mFc-tagged human NKG2D; not shown: mouse Fc tag
# T2 sequence (looked up): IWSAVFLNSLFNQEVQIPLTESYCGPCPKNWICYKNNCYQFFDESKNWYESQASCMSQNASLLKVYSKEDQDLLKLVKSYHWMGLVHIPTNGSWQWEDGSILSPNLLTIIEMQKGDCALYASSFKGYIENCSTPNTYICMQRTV
# B1: F3'-1602 TriNKET (bispecific antibody, human IgG1, kappa)
# chain: QLQLQESGPGLVKPSETLSLTCTVSGFSLTNYGLHWIRQPPGKCLEWIGVIWSGGKTDYNPSLKSRVTISKDTSKNQFSLKLSSVQAADTAVYYCAKYDYDDSLDYWGQGTLVTVSSGGGGSGGGGSGGGGSGGGGSDIQMTQSPSSLSASVGDRVTITCHASQNINFWLSWYQQKPGKAPKLLIYEASNLHTGVPSRFSGSGSGTRFTLTISSLQPEDIATYYCQQSHSYPLTFGCGTKLEIKGSDKTHTCPPCPAPELLGGPSVFLFPPKPKDTLMISRTPEVTCVVVDVSHEDPEVKFNWYVDGVEVHNAKTKPREEQYNSTYRVVSVLTVLHQDWLNGKEYKCKVSNKALPAPIEKTISKAKGQPREPRVYTLPPCRDELTKNQVSLTCLVKGFYPSDIAVEWESNGQPENNYKTTPPVLVSDGSFTLYSKLTVDKSRWQQGNVFSCSVMHEALHNHYTQKSLSLSPG
# heavy: EVQLVESGGGLVKPGGSLRLSCAASGFTFSSYSMNWVRQAPGKGLEWVSSISSSSSYIYYADSVKGRFTISRDNAKNSLYLQMNSLRAEDTAVYYCARGAPIGAAAGWFDPWGQGTLVTVSSASTKGPSVFPLAPSSKSTSGGTAALGCLVKDYFPEPVTVSWNSGALTSGVHTFPAVLQSSGLYSLSSVVTVPSSSLGTQTYICNVNHKPSNTKVDKKVEPKSCDKTHTCPPCPAPELLGGPSVFLFPPKPKDTLMISRTPEVTCVVVDVSHEDPEVKFNWYVDGVEVHNAKTKPREEQYNSTYRVVSVLTVLHQDWLNGKEYKCKVSNKALPAPIEKTISKAKGQPREPQVCTLPPSRDELTENQVSLTCLVKGFYPSDIAVEWESNGQPENNYKTTPPVLDSDGSFFLYSWLTVDKSRWQQGNVFSCSVMHEALHNHYTQKSLSLSPG
# light: DIQMTQSPSSVSASVGDRVTITCRASQGISSWLAWYQQKPGKAPKLLIYAASSLQSGVPSRFSGSGSGTDFTLTISSLQPEDFATYYCQQGVSFPRTFGGGTKVEIKRTVAAPSVFIFPPSDEQLKSGTASVVCLLNNFYPREAKVQWKVDNALQSGNSQESVTEQDSKDSTYSLSSTLTLSKADYEKHKVYACEVTHQGLSSPVTKSFNRGEC
# notes: Trispecific F3' format: CLEC12A scFv-Fc paired with NKG2D Fab-Fc; Stressed and control samples of the stability studies are the same molecule; also called AB0237
# Experiments:
# Human CLEC12A-His [1] = target: T1, Human CLEC12A-His; experiment: SPR Biacore 8K 37 C; TriNKET captured on anti-hFc chip, hCLEC12A-His as analyte; 1:1 fit; control sample, n=2
# Protocol: Briefly, human Fc specific antibodies were covalently immobilized at a density ˜8000-10000 resonance units (RU) on carboxy methyl dextran matrix of a CM5 biosensor chip via amine-coupling chemistry to create an anti-hFc IgG chip. […] Association was monitored for 300 seconds and dissociation was monitored for 600 seconds. Surfaces were regenerated between cycles with three pulses of 10 mM glycine-HCl, pH 1.7 injected for 20 seconds at 100 μL/min. HBS-EP+ (1×) with 0.1 mg/mL BSA buffer was used throughout the experiment. Data were analyzed using Biacore 8K Insight evaluation software (GE Healthcare). The kinetic rate constants and overall affinity were obtained using 1:1 kinetic fit binding model (FIGS. 71A-71B).
# mFc-hNKG2D [2] = target: T2, mFc-hNKG2D; experiment: SPR Biacore 8K 37 C; mFc-hNKG2D captured on anti-mFc chip, TriNKET as analyte; 1:1 kinetic fit; control sample
# Protocol: (§1) Association was monitored for 60 seconds and dissociation was monitored for 60 seconds. Surfaces were regenerated between cycles with three pulses of 10 mM glycine-HCl, pH 1.7 injected for 20 seconds at 100 μL/min. HBS-EP+ (1×) buffer was used throughout the experiment. Data were analyzed using Biacore 8K Insight evaluation software (GE Healthcare).
# mFc-hNKG2D [3] = target: T2, mFc-hNKG2D; experiment: SPR Biacore 8K 37 C; mFc-hNKG2D captured on anti-mFc chip, TriNKET as analyte; 1:1 kinetic fit; pH 5.0 control
# Protocol: as §1
# mFc-hNKG2D [4] = target: T2, mFc-hNKG2D; experiment: SPR Biacore 8K 37 C; mFc-hNKG2D captured on anti-mFc chip, TriNKET as analyte; 1:1 kinetic fit; control sample, n=2
# Protocol: as §1
# mFc-hNKG2D [5] = target: T2, mFc-hNKG2D; experiment: SPR Biacore 8K 37 C; mFc-hNKG2D captured on anti-mFc chip, TriNKET as analyte; steady state fit; control sample, n=3
# Protocol: as §1
# Human CLEC12A-His [6] = target: T1, Human CLEC12A-His; experiment: SPR Biacore 8K 37 C; TriNKET captured on anti-hFc chip, hCLEC12A-His as analyte; 1:1 fit; after 2 wks 40 C at pH 8.0, n=2
# mFc-hNKG2D [7] = target: T2, mFc-hNKG2D; experiment: SPR Biacore 8K 37 C; mFc-hNKG2D captured on anti-mFc chip, TriNKET as analyte; steady state fit; after 4 wks 40 C in HST pH 6.0
# Protocol: as §1
binder,measurement,setting,value
B1,Kd,Human CLEC12A-His [1],0.98 nM
same,koff,Human CLEC12A-His [1],0.000735 s⁻¹
same,kon,Human CLEC12A-His [1],750000 M⁻¹ s⁻¹
same,Kd,mFc-hNKG2D [2],760 nM
same,koff,mFc-hNKG2D [2],0.129 s⁻¹
same,kon,mFc-hNKG2D [2],170000 M⁻¹ s⁻¹
same,Kd,mFc-hNKG2D [3],678 nM
same,koff,mFc-hNKG2D [3],0.128 s⁻¹
same,kon,mFc-hNKG2D [3],189000 M⁻¹ s⁻¹
same,Kd,mFc-hNKG2D [4],790 nM
same,koff,mFc-hNKG2D [4],0.153 s⁻¹
same,kon,mFc-hNKG2D [4],193000 M⁻¹ s⁻¹
same,Kd,mFc-hNKG2D [5],664 nM
same,Kd,Human CLEC12A-His [6],1 nM
same,koff,Human CLEC12A-His [6],0.000845 s⁻¹
same,kon,Human CLEC12A-His [6],835000 M⁻¹ s⁻¹
same,Kd,mFc-hNKG2D [7],776 nM
